{"source": "patent US20140255407A1", "about": "(MacroGenics, published 2014)", "binders": {"B1": {"name": "hBRCA84D (antibody, V domains shown)", "VH": "EVQLVESGGGLVQPGGSLRLSCAASGFTFSSFGMHWVRQAPGKGLEWVAYISSDSSAIYYADTVKGRFTISRDNAKNSLYLQMNSLRDEDTAVYYCGRGRENIYYGSRLDYWGQGTTVTVSS", "VL": "DIQLTQSPSFLSASVGDRVTITCKASQNVDTNVAWYQQKPGKAPKALIYSASYRYSGVPSRFSGSGSGTDFTLTISSLQPEDFATYYCQQYNNYPFTFGQGTKLEIKR"}, "B2": {"name": "hBRCA69D (humanized antibody BRCA69D) (antibody, V domains shown)", "VH": "QVQLVQSGAEVKKPGASVKVSCKASGYTFTSYWMQWVRQAPGQGLEWMGTIYPGDGDTRYTQKFKGRVTITADKSTSTAYMELSSLRSEDTAVYYCARRGIPRLWYFDVWGQGTTVTVSS", "VL": "DIQMTQSPSSLSASVGDRVTITCRASQDISNYLNWYQQKPGKAPKLLIYYTSRLHSGVPSRFSGSGSGTDFTLTISSLQPEDIATYYCQQGNTLPPTFGGGTKLEIK", "notes": "Residue limits are my derivation"}}, "key": {"Canine B7-H3": {"biological_target": "T1, Canine B7-H3", "T1 chain": "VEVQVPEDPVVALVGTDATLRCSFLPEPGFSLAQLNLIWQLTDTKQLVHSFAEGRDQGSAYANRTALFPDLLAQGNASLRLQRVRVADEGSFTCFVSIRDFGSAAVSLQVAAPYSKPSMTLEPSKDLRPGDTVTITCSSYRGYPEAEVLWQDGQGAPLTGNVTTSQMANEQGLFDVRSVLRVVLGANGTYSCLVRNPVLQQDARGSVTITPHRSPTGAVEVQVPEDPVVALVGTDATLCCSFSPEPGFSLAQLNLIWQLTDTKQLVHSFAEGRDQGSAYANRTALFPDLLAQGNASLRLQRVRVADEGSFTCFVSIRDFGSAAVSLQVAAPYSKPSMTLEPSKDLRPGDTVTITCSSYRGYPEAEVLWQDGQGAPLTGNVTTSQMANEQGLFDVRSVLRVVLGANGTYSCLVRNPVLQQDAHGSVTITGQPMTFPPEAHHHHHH", "test": "SPR"}, "Human B7-H3": {"biological_target": "T2, Human B7-H3 (human, UniProt Q5ZPR3 29-466)", "T2 chain": "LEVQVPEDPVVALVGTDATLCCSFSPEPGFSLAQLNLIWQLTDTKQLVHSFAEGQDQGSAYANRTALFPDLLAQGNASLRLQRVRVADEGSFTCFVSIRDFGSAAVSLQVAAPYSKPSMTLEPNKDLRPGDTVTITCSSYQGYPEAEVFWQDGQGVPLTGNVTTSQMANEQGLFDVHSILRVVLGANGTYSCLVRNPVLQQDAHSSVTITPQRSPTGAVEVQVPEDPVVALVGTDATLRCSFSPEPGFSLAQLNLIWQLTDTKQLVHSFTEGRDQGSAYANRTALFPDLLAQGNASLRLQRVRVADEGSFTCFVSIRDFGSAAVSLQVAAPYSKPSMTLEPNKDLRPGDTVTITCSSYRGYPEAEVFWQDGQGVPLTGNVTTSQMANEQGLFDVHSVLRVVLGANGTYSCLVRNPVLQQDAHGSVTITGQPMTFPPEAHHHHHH", "test": "SPR"}, "[1]": {"biological_target": "T3, soluble human B7-H3 with 6xHis tag at the carboxy terminus (human, UniProt Q5ZPR3 29-466)", "T3 construct": "extracellular domain; also called hB7-H3; human B7H3(4Ig)-His", "T3 sequence": "T2 chain", "test": "ELISA and SPR on soluble human B7-H3-His", "procedure": "Antibodies hBRCA84D and hBRCA69D were tested in an ELISA for binding to canine B7-H3. Briefly, soluble human B7-H3 and canine B7-H3 were expressed in CHO cells. Each soluble molecule was engineered to express a 6×His tag at the carboxy terminus to aid in purification of the expressed protein. The molecules were purified by nickel column chromatography using standard techniques. ELISA plates were coated with the soluble B7-H3 and allowed to dry. The plates were washed and blocked using standard ELISA techniques. The wells were probed with either hBRCA84D, hBRCA69D or a control hIgG. Secondary detection reagent was added and binding was determined As shown in FIG. 1A (hBRCA84D) and FIG. 1B (hBRCA69D), the antibodies were able to bind to soluble canine B7-H3 (cB7-H3). To determine binding affinity of the hBRCA84D and hBRCA69D antibodies to soluble canine B7-H3, SPR analysis was conducted. As shown in FIGS. 1C and 1D (hBRCA84D) and FIGS. 1E and 1F (BRCA69D) the binding affinities are similar to the binding of the antibodies to soluble human B7-H3 (shown in FIG. 1A and FIG. 1B, respectively)."}, "[2]": {"biological_target": "T4, soluble human B7-H3 with 6xHis tag at the carboxy terminus (human, UniProt Q5ZPR3 29-466)", "T4 chain": "T2 chain", "test": "SPR"}, "[3]": {"biological_target": "T5, soluble canine B7-H3 with 6xHis tag at the carboxy terminus", "T5 chain": "T1 chain", "test": "SPR"}}}
{"binder": "B1", "values": [{"measurement": "Kd", "setting": "Canine B7-H3", "result": 39, "unit": "nM"}, {"measurement": "Kd", "setting": "Human B7-H3", "result": 45, "unit": "nM"}]}
{"binder": "B2", "values": [{"measurement": "binding result", "setting": "[1]", "result": "binds"}, {"measurement": "Kd", "setting": "[2]", "result": 8.8, "unit": "nM"}, {"measurement": "Kd", "setting": "[3]", "result": 8.4, "unit": "nM"}]}
